Where two headings read alike, the source gives them in different places.
Legend:
[1] = biological target: T1, cyanuric acid hydrolase from M. thermoacetica (Moorella thermoacetica, UniProt Q2RGM7); format: biochemical, Moorella thermoacetica ATCC 39073; details: for effect of metal on native enzyme activity: 0.2 mM; for activity as % of native activity: at higher concentrations (1.0 and 2.0 mM)
T1 construct: ORF Moth—2120 from M. thermoacetica ATCC 39073 was PCR amplified; His-tag (from pET28b+, cloned NdeI/HindIII) (N); made in house; host or cells: E. coli BRL21(DE3) pLysS, vector pET28b+::Moth_2120
T1 sequence (Q2RGM7 1-367): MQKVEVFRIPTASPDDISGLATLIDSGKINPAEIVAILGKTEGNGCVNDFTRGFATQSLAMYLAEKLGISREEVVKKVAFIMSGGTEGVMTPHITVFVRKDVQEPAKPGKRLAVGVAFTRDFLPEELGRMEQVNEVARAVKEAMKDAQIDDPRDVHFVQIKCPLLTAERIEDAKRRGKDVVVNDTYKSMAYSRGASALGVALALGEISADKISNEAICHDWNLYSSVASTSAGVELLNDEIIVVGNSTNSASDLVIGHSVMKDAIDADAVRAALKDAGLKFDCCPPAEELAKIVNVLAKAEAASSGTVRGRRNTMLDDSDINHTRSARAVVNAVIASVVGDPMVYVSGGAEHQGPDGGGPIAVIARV

[2] = biological target: T1, cyanuric acid hydrolase from M. thermoacetica; assay: Metal chelator effects; format: biochemical, Moorella thermoacetica ATCC 39073; details: for effect of chelator on activity: 5 mM chelator, 24 h incubation, room temperature
Procedure: Metal chelator effects. Purified protein was incubated at room temperature with 5 mM 1,10-phenanthroline, 8-hydroxyquinoline-5-sulfonic acid, or ethylenediaminetetraacetic acid (EDTA) for 24 hours. PD-10 desalting columns (GE Healthcare) were used, as per the manufacturer's instructions, to remove the chelator from the enzyme. Enzymatic activity was measured with cyanuric acid as substrate, as described above.

[3] = biological target: T2, Moorella cyanuric acid hydrolase (Moorella thermoacetica, UniProt Q2RGM7); assay: Substrate specificity analysis; format: biochemical, Moorella thermoacetica ATCC 39073
T2 construct: ORF Moth—2120 from M. thermoacetica ATCC 39073 was PCR amplified; His-tag (from pET28b+, cloned NdeI/HindIII) (N); made in house; host or cells: E. coli BRL21(DE3) pLysS, vector pET28b+::Moth_2120
T2 sequence (Q2RGM7 1-367): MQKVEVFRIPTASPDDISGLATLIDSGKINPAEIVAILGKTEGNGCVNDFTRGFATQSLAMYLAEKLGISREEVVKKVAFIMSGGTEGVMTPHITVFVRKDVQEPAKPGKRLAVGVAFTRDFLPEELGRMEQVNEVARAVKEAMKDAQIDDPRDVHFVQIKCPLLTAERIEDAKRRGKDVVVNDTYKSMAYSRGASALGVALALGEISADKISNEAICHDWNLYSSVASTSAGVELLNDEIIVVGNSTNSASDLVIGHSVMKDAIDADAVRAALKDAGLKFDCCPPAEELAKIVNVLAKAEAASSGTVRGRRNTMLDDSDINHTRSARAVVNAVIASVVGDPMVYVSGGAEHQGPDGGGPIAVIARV
Procedure: (§1) Enzyme assay and kinetic constant determinations. Enzyme activity was monitored on a Beckman DU 640 spectrophotometer (Beckman Coulter, Fullerton, Calif.). Cyanuric acid and barbituric acid concentrations were measured at 214 nm (extinction coefficient=9200 cm^−1M^−1) and 256 nm, respectively. Reactions were carried out in 0.5 ml 25 mM Tris-HCl buffer, pH 8.0 with 100 μM cyanuric acid or barbituric acid at 30° C. Reactions were initiated by the addition of the enzyme. Kinetic parameters were determined by obtaining rates at cyanuric acid concentrations ranging from 10 to 110 μM. The data was plotted using Lineweaver-Burke plots.
Substrate specificity analysis. Seventeen compounds structurally analogous to cyanuric acid were tested as substrates: 5-nitrobarbituric acid, 5-methylbarbituric acid, 2-methylamino-4,6dihydroxy-s-triazine, 1,3,5-trimethoxy-s-triazine, 2-(3-methoxy propylamino)-4,6-dihydroxy-s-triazine, triphenoxy-s-triazine, 2-secbutyl-4,6-dihydroxy-s-triazine, N-phenyl ammelide, 2-ethylamino-4,6-dihydroxy-s-triazine, triisopropoxy-s-triazine, trimethyl isocyanurate, 1,3-dimethyl isocyanurate, hexazinone, 4,6-dihydroxy-2-mecapto pyrimidine, 4,6-dihydroxy-5-nitro-pyrimidine, barbituric acid and methyl isocyanurate. The compounds (100 μM) were incubated with 50 μg of purified enzyme in 25 mM Tris-HCl buffer (pH 8.0) for 30 min. Changes in the UV spectra were recorded. In cases where changes in the spectra were detected, an appropriate wavelength with absorbance differences between the substrate and product was chosen for further kinetic study. For N-methylisocyanurate, absorbance was measured at 214 nm (extinction coefficient=9500 cm^−1M^−1).

[4] = biological target: T3, cyanuric acid hydrolase from M. thermoacetica ATCC 39073 (Moorella thermoacetica, UniProt Q2RGM7); assay: Storage stability at 4° C. or −80° C. with or without additives; format: biochemical, Moorella thermoacetica ATCC 39073; details: for Activity, 0 week: pH 8.0, 0 week; for Activity, 2 week: pH 8.0, 2 week; for Activity, 4 week: pH 8.0, 4 week; for Activity, 6 week: pH 8.0, 6 week; for Activity, 8 week: pH 8.0, 8 week
T3 construct: ORF Moth—2120 from M. thermoacetica ATCC 39073 was PCR amplified; His-tag (from pET28b+, cloned NdeI/HindIII) (N); made in house; host or cells: E. coli BRL21(DE3) pLysS, vector pET28b+::Moth_2120
T3 sequence (Q2RGM7 1-367): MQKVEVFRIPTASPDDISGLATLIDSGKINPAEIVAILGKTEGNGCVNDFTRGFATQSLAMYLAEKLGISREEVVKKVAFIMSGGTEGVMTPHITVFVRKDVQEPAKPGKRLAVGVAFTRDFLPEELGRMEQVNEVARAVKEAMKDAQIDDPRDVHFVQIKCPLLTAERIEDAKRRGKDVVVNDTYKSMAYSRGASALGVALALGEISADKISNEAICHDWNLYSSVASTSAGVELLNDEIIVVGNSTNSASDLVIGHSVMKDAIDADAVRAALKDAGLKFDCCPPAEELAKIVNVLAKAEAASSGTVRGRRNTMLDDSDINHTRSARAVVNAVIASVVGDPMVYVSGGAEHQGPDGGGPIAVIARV
Procedure: (§2) Temperature stability of the enzyme. The thermal stability of the enzyme was determined by incubating the enzyme at various temperatures for […] prior to activity determinations. Studies of the stability during storage were performed at 4° C. or −80° C. with or without additives. The additives were 0.2 mM of dithiothreitol (DTT), 10% ethylene glycol, 25% glycerol and 25% polyethylene glycol (PEG) 4000. The activity was checked every two weeks, as described above.

[5] = Temperature stability of the enzyme (30 min incubation prior to assay); format: biochemical
Procedure: FIG. 4. Stability of enzyme activity vs. temperature at pH 8.0 for purified cyanuric acid hydrolases from M. thermoacetica ATCC 39073 (●) compared with TrzD (▪) and AtzD (▴). Enzymes were maintained at the temperature indicated for 30 minutes prior to assay under standard conditions.
as §2

[6] = Effect of pH and temperature on enzymatic activity; format: biochemical
Procedure: Effect of pH and temperature on enzymatic activity. The optimum pH of the enzyme was determined at 30° C. with the following buffers: 25 mM […]; 25 mM Tris-HCl, pH 7-9; NaHCO3/Na2CO3, pH 9.5-10.5. The temperature optimum was determined by assaying the enzyme activity in 25 mM Tris-HCl, pH 8.0 at temperatures ranging from 25° C. to 70° C.

[7] = Enzyme assay and kinetic constant determinations (cyanuric acid, 214 nm); format: biochemical
Procedure: as §1

[8] = cyanuric acid, published values, cited from earlier work

## [Cl-].[Cl-].[Co+2] [CoCl2]
[1]
  Relative activity: 92 ± 5

## O=C(O)CN(CCN(CC(=O)O)CC(=O)O)CC(=O)O [EDTA, ethylenediaminetetraacetic acid]
[2]
  effect of chelator on activity: failed to alter activity

## [Cl][Ni][Cl] [NiCl2]
[1]
  effect of metal on native enzyme activity: slight decreases in activity
[1]; metal salt 0.2 mM
  Relative activity: 79 ± 3

## [Cl][Fe]([Cl])[Cl] [FeCl3]
[1]; metal salt 0.2 mM
  Relative activity: 105 ± 4

## [Cl][Cu][Cl] [CuCl2]
[1]
  effect of metal on native enzyme activity: slight decreases in activity
[1]; metal salt 0.2 mM
  Relative activity: 83 ± 3

## Cn1c(=O)[nH]c(=O)[nH]c1=O [methyl isocyanurate]
[3]
  rate relative to the preferred substrate cyanuric acid: less than 1%
[3]; 100 μM compound, 25 mM Tris-HCl pH 8.0
  rate of hydrolysis as substrate: 0.13 µmol/min/mg

## [Ca+2].[Cl-].[Cl-] [CaCl2]
[1]
  activity as % of native activity: 121%
[1]; metal salt 1.0 mM
  Relative activity: 121 ± 7

## O=C1CC(=O)NC(=O)N1 [barbituric acid]
[3]; 100 μM, even with 50 μg of protein in a single assay
  detectable activity with compound as substrate: did not show detectable activity

## O=S(=O)([O-])[O-].[Zn+2] [ZnSO4]
[1]
  effect of metal on native enzyme activity: greatest inhibitory affect
[1]; metal salt 0.2 mM
  Relative activity: 51 ± 4

## [Cl-].[Cl-].[Mg+2] [MgCl2]
[1]
  activity as % of native activity: 119%
[1]; metal salt 2.0 mM
  Relative activity: 119 ± 2

## O=S(=O)([O-])[O-].[Mn+2] [MnSO4]
[1]; metal salt 0.2 mM
  Relative activity: 96 ± 3

## c1cnc2c(c1)ccc1cccnc12 [o-phenanthroline, 1,10-phenanthroline]
[2]
  effect of chelator on activity: failed to alter activity

## O=S(=O)(O)c1ccc(O)c2ncccc12 [8-hydroxyquinoline-5-sulfonic acid]
[2]
  effect of chelator on activity: failed to alter activity

B1: cyanuric acid hydrolase from M. thermoacetica ATCC 39073: recombinant His-tagged cyanuric acid hydrolase encoded by ORF Moth—2120 of Moorella thermoacetica ATCC 39073, expressed in E. coli (protein, listed as Moorella thermoacetica)
chain: MQKVEVFRIPTASPDDISGLATLIDSGKINPAEIVAILGKTEGNGCVNDFTRGFATQSLAMYLAEKLGISREEVVKKVAFIMSGGTEGVMTPHITVFVRKDVQEPAKPGKRLAVGVAFTRDFLPEELGRMEQVNEVARAVKEAMKDAQIDDPRDVHFVQIKCPLLTAERIEDAKRRGKDVVVNDTYKSMAYSRGASALGVALALGEISADKISNEAICHDWNLYSSVASTSAGVELLNDEIIVVGNSTNSASDLVIGHSVMKDAIDADAVRAALKDAGLKFDCCPPAEELAKIVNVLAKAEAASSGTVRGRRNTMLDDSDINHTRSARAVVNAVIASVVGDPMVYVSGGAEHQGPDGGGPIAVIARV
modifications: His tag
notes: recombinant His-tagged cyanuric acid hydrolase encoded by ORF Moth—2120 of Moorella thermoacetica ATCC 39073, expressed in E. coli
[1]
  Metal affects on activity: Cu(II), Zn(I), Ni(II)
[4]; both storage temperatures (4° C. and −80° C.)
  loss of activity after 8 weeks: no loss of activity
[4]; stored at 4° C., 8 weeks
  specific activity after 8 weeks as % of initial specific activity: 142%
[4]; stored at 4° C.
  Activity, 0 week: 11.9 ± 0.23 μmol per min per mg protein
  Activity, 2 week: 12.5 ± 0.2 μmol per min per mg protein
  Activity, 4 week: 15.9 ± 0.7 μmol per min per mg protein
  Activity, 6 week: 16.6 ± 0.9 μmol per min per mg protein
  Activity, 8 week: 16.9 ± 1^ μmol per min per mg protein
[4]; stored at −80° C.
  Activity, 0 week: 11.9 ± 0.2 μmol per min per mg protein
  Activity, 2 week: 14.9 ± 0.1 μmol per min per mg protein
  Activity, 4 week: 14.3 ± 0.3 μmol per min per mg protein
  Activity, 6 week: 12.3 ± 0.4 μmol per min per mg protein
  Activity, 8 week: 11.7 ± 1.1 μmol per min per mg protein
[5]; 30 min, pH 8.0
  initial activity remaining after 30 min at 50° C.: stable
[5]; 30 min, pH 8.0, listed as Moorella enzyme
  initial activity remaining after 30 min at 50° C.: 95%
[5]; 70° C., 30 min, pH 8.0
  initial activity remaining after 30 min at 70° C.: 30%
[5]; pH 8.0, 30 min incubation
  Thermostability: temperature where activity above 50% after a 30 min incubation: 20-65 °C
[3]
  Known substrates: Cyanuric acid, N-
[2]
  Influence of chelators on activity: No affect EDTA, o-
[6]; 25 mM Tris-HCl pH 8.0, range 25-70° C.
  Temp, optimum: 70 °C
[6]; 30° C., pH 5.5 to 10.5
  pH optimum: 8.0
[6]; 70° C., pH 8.0
  maximum activity at 70° C.: 24 μmol per min per mg protein
[7]; 100 μM cyanuric acid, 25 mM Tris-HCl pH 8.0, 30° C.
  specific activity with cyanuric acid: 15.7 µmol/min/mg
[7]; cyanuric acid 10 to 110 μM, Lineweaver-Burke, read-out: Km with cyanuric acid as substrate
  Km: 110 µM
[7]; cyanuric acid as substrate
  kcat: 10.6 s⁻¹
[8]
  kcat (literature): 10.6 s⁻¹
[8]; read-out: Km (literature)
  Km: 110 µM

— patent US8367389B2, “Methods, compositions and devices utilizing structurally stable cyanuric acid hydrolase” (Regents of the University of Minnesota, priority 2009, dated 2013)
